Holding throughout (test): SPR; BIACORE 2000; biotinylated ligand on a streptavidin-modified CM5 chip (about 200 RU); receptor ectodomain as analyte at 1, 2, 3, 5, 10, 20 and 50 uM; HBS500 (10 mM HEPES pH 7.4, 500 mM NaCl, 3.4 mM EDTA, 0.005% P20); apparent KD from the dose dependence of equilibrium binding
For orientation: In SPR one partner is held on a chip, and binding of the other changes the refractive index at the surface.

The target of experiment [1] is BMP-2 S85R.
Experiment [2] deals with BMP-2 N102D.
Experiment [3] addresses BMP-2 S85R/A86P.
The target in experiment [4] is BMP-2 A86P.
The target in experiment [5] is BMP-2 variant L100K/N102D.
The target in experiment [6] is BMP-2 L100K.

This note sets out measurements from paper PMC1802081.

As for “ActR-II receptor ectodomain (from UniProt P27037 20-135)”, the rel. KD (against wildtype BMP-2 from E. coli with the same receptor) worked out at 0.85 fold in experiment [1]; 3.6 fold in experiment [2]; 1.3 fold in experiment [3]; 1.5 fold in experiment [4]; 0.29 fold in experiment [5]; 0.84 fold in experiment [6].
